This is an account of results in patent US20250034269A1 (Hoffmann-La Roche, published 2025).

The target in test [1] is T1, cynomolgus LTBR on CHO-K1 cells (cynomolgus, UniProt A0A2K5VGQ6 31-440).
T1 construct: whole, on cells; also called cyno LTBR on cells
In words: flow cytometry on CHO-K1 cells overexpressing cynomolgus LTBR, 1 h at 4 °C, PE-labelled anti-human-Fc, MFI normalized to baseline. (In general: A flow cytometer gives signals particle by particle.)

A further test has as its target T2, human LTBR on cells (human, UniProt P36941 31-435).
T2 construct: also called recombinant human LTBR CHO cells; CHO-K1 cells overexpressing human LTBR
The experiment in a line: flow cytometry on CHO-K1 cells overexpressing human LTBR, 1 h at 4 °C, PE-labelled anti-human-Fc, MFI normalized to baseline.

In a further test the target is T3, murine LTBR on cells (mouse, UniProt P50284 31-415).
T3 construct: also called CHO-K1 cells overexpressing murine LTBR; NIH-3T3 cells
The experiment in a line: flow cytometry on CHO-K1 cells overexpressing murine LTBR, 1 h at 4 °C, PE-labelled anti-human-Fc, MFI normalized to baseline.

B1: P1AE1079 (bispecific antibody, human IgG1, kappa, L234A L235A)
heavy 1: not shown
light: DIQMTQSPSSLSASVGDRVTITCKAGQDIKSYLSWYQQKPGKAPKLLIYYATRLADGVPSRFSGSGSGTDYTLTISSLQPEDFATYYCLQHGESPWTFGGGTKLEIKRTVAAPSVFIFPPSDEQLKSGTASVVCLLNNFYPREAKVQWKVDNALQSGNSQESVTEQDSKDSTYSLSSTLTLSKADYEKHKVYACEVTHQGLSSPVTKSFNRGEC
heavy 2: EVQLVESGGGLVKPGGSLRLSCAASGFTFSDYYMYWFRQAPGKGLEWVATISDGGSYTYYPDSVKGRFTISRDNAKNSLYLQMSSLRAEDTAVYYCAREENGNFYYFDYWGQGTTVTVSSASTKGPSVFPLAPSSKSTSGGTAALGCLVKDYFPEPVTVSWNSGALTSGVHTFPAVLQSSGLYSLSSVVTVPSSSLGTQTYICNVNHKPSNTKVDKKVEPKSCDKTHTCPPCPAPEAAGGPSVFLFPPKPKDTLMISRTPEVTCVVVDVSHEDPEVKFNWYVDGVEVHNAKTKPREEQYNSTYRVVSVLTVLHQDWLNGKEYKCKVSNKALGAPIEKTISKAKGQPREPQVCTLPPSRDELTKNQVSLSCAVKGFYPSDIAVEWESNGQPENNYKTTPPVLDSDGSFFLVSKLTVDKSRWQQGNVFSCSVMHEALHNHYTQKSLSLSPGGGGGSGGGGSGGGGSGGGGSEIVLTQSPGTLSLSPGERATLSCRASQSVTSSYLAWYQQKPGQAPRLLINVGSRRATGIPDRFSGSGSGTDFTLTISRLEPEDFAVYYCQQGIMLPPTFGQGTKVEIK
notes: 2+1 anti-LTBR (CBE11)/anti-FAP (4B9) human IgG1 PG LALA with C-terminal FAP VH (knob) and VL (hole) domains; also called P1AG1079
Consider B1, for which the binding result in test [1] is on record as “no binding (tested: about 130 nM)”; with human LTBR on cells it was “binds”; in the test with murine LTBR on cells, “no binding (tested: about 130 nM)”.
